Test results reported in patent US20230265151A1, “GIP/GLP1 CO-AGONIST COMPOUNDS” (priority 2020, published 2023).
Positions count from the first letter of the chain named.

B1: Y-Aib-EGT-αMeF(2F)-TSD-4Pal-SI-αMeL-LD-Orn-K((2-[2-(2-Amino-ethoxy)-ethoxy]-acetyl)2-(γ-Glu)-(10-(4-carboxyphenoxy)decanoyl))AQ-Aib-EFI-(D-Glu)-αMeY-LIEGGK((2-[ … (peptide)
peptide: YXEGTXTSDXSIXLDXKAQXEFIXXLIEGGKSSGAPPPS
modifications: Aib2, αMeF(2F)6, 4Pal10, αMeL13, Orn16, Aib20, D-Glu24, αMeY25; acylated K17, K31 (groups as in name); C-terminal amide
B2: Y-Aib-EGT-αMeF(2F)-TSDK((2-[2-(2-Amino-ethoxy)-ethoxy]-acetyl)2-(γ-Glu)-CO-(CH2)12-CO2H)SI-αMeL-LD-Orn-K((2-[2-(2-Amino-ethoxy)-ethoxy]-acetyl)2-(γ-Glu)-CO-(CH2 … (peptide)
peptide: B1 peptide with X10K, K31P
modifications: Aib2, αMeF(2F)6, αMeL13, Orn16, Aib20, D-Glu24, αMeY25; acylated K10, K17 (groups as in name); C-terminal amide
B3: Y-Aib-EGT-αMeF(2F)-TSD-4Pal-SI-αMeL-LD-Orn-K((2-[2-(2-Amino-ethoxy)-ethoxy]-acetyl)2-(εK)-(γ-Glu)-CO-(CH2)12-CO2H)AQ-Aib-EFI-(D-Glu)-αMeY-LIEGGK((2-[2-(2-Amino- … (peptide)
peptide: B1 peptide
modifications: Aib2, αMeF(2F)6, 4Pal10, αMeL13, Orn16, Aib20, D-Glu24, αMeY25; acylated K17, K31 (groups as in name); C-terminal amide
B4: Y-Aib-EGT-αMeF(2F)-TSD-4Pal-SI-αMeL-LD-Orn-K((2-[2-(2-Amino-ethoxy)-ethoxy]-acetyl)2-(10-(4-carboxyphenoxy)decanoyl))AQ-Aib-EFI-(D-Glu)-αMeY-LIEGGK((2-[2-(2-Ami … (peptide)
peptide: B1 peptide
modifications: Aib2, αMeF(2F)6, 4Pal10, αMeL13, Orn16, Aib20, D-Glu24, αMeY25; acylated K17, K31 (groups as in name); C-terminal amide
B5: Y-Aib-EGT-αMeF(2F)-TSD-4Pal-SI-αMeL-LD-Orn-K((2-[2-(2-Amino-ethoxy)-ethoxy]-acetyl)2-(γ-Glu)-CO-(CH2)14-CH3)AQ-Aib-EFIK((2-[2-(2-Amino-ethoxy)-ethoxy]-acetyl)2- … (peptide)
peptide: B1 peptide with X24K, K31P
modifications: Aib2, αMeF(2F)6, 4Pal10, αMeL13, Orn16, Aib20, αMeY25; acylated K17, K24 (groups as in name); C-terminal amide
B6: Y-Aib-EGT-aMeF(2F)-TSD-4Pal-SI-aMeL-LD-Orn-K((2-[2-(2-Amino-ethoxy)-ethoxy]-acetyl)2-CO-(CH2)12-CO2H)AQ-Aib-EFIK((2-[2-(2-Amino-ethoxy)-ethoxy]-acetyl)2-CO-(CH2 … (peptide)
peptide: B1 peptide with X24K, K31P
modifications: Aib2, αMeF(2F)6, 4Pal10, αMeL13, Orn16, Aib20, αMeY25; acylated K17, K24 (groups as in name); C-terminal amide
B7: Y-Aib-EGT-αMeF(2F)-TSD-4Pal-SI-αMeL-LD-Orn-K((2-[2-(2-Amino-ethoxy)-ethoxy]-acetyl)-(γ-Glu)-CO-(CH2)10-CH3)AQ-Aib-EFI-(D-Glu)-αMeY-LIEGGK((2-[2-(2-Amino-ethoxy) … (peptide)
peptide: B1 peptide
modifications: Aib2, αMeF(2F)6, 4Pal10, αMeL13, Orn16, Aib20, D-Glu24, αMeY25; acylated K17, K31 (groups as in name); C-terminal amide
B8: Y-Aib-EGT-αMeF(2F)-TSD-4Pal-SI-αMeL-LD-Orn-K((2-[2-(2-Amino-ethoxy)-ethoxy]-acetyl)2-(γ-Glu)-CO-(CH2)14-CH3)AQ-Aib-K((2-[2-(2-Amino-ethoxy)-ethoxy]-acetyl)2-(γ- … (peptide)
peptide: B1 peptide with E21K, K31P
modifications: Aib2, αMeF(2F)6, 4Pal10, αMeL13, Orn16, Aib20, D-Glu24, αMeY25; acylated K17, K21 (groups as in name); C-terminal amide
B9: Y-Aib-EGT-αMeF(2F)-TSD-4Pal-SI-αMeL-LD-Orn-K((2-[2-(2-Amino-ethoxy)-ethoxy]-acetyl)2-(γ-Glu)-(4-(4-iodophenyl)butanoyl))AQ-Aib-EFI-(D-Glu)-αMeY-LIEGGK((2-[2-(2- … (peptide)
peptide: B1 peptide
modifications: Aib2, αMeF(2F)6, 4Pal10, αMeL13, Orn16, Aib20, D-Glu24, αMeY25; acylated K17, K31 (groups as in name); C-terminal amide
B10: Y-Aib-EGT-αMeF(2F)-TSD-4Pal-SI-αMeL-LD-Orn-K((2-[2-(2-Amino-ethoxy)-ethoxy]-acetyl)2-(γ-Glu)-(4-(4-tert-butylphenyl)butanoyl))AQ-Aib-EFI-(D-Glu)-αMeY-LIEGGK((2- … (peptide)
peptide: B1 peptide
modifications: Aib2, αMeF(2F)6, 4Pal10, αMeL13, Orn16, Aib20, D-Glu24, αMeY25; acylated K17, K31 (groups as in name); C-terminal amide
B11: Y-Aib-EGT-αMeF(2F)-TSD-4Pal-SI-αMeL-LD-Orn-K((2-[2-(2-Amino-ethoxy)-ethoxy]-acetyl)-(y-Glu)-CO-(CH2)12-CO2H)AQ-Aib-K((2-[2-(2-Amino-ethoxy)-ethoxy]-acetyl)-(γ-G … (peptide)
peptide: B1 peptide with E21K, K31P
modifications: Aib2, αMeF(2F)6, 4Pal10, αMeL13, Orn16, Aib20, D-Glu24, αMeY25; acylated K17, K21 (groups as in name); C-terminal amide
B12: Y-Aib-EGT-αMeF(2F)-TSD-4Pal-SI-αMeL-LD-Orn-K((2-[2-(2-Amino-ethoxy)-ethoxy]-acetyl)2-(γ-Glu)-(4-(4-tert-butylphenyl)butanoyl))AQ-Aib-K((2-[2-(2-Amino-ethoxy)-et … (peptide)
peptide: B1 peptide with E21K, K31P
modifications: Aib2, αMeF(2F)6, 4Pal10, αMeL13, Orn16, Aib20, D-Glu24, αMeY25; acylated K17, K21 (groups as in name); C-terminal amide
B13: Y-Aib-EGT-αMeF(2F)-TSD-4Pal-SI-αMeL-LD-Orn-K((2-[2-(2-Amino-ethoxy)-ethoxy]-acetyl)3-(γ-Glu)-CO-(CH2)14-CH3)AQ-Aib-EFI-(D-Glu)-αMeY-LIEGGK((2-[2-(2-Amino-ethoxy … (peptide)
peptide: B1 peptide
modifications: Aib2, αMeF(2F)6, 4Pal10, αMeL13, Orn16, Aib20, D-Glu24, αMeY25; acylated K17, K31 (groups as in name); C-terminal amide
B14: Y-Aib-EGT-αMeF(2F)-TSD-4Pal-SI-αMeL-LD-Orn-K((2-[2-(2-Amino-ethoxy)-ethoxy]-acetyl)-(γ-Glu)-CO-(CH2)12-CO2H)AQ-Aib-EFIK((2-[2-(2-Amino-ethoxy)-ethoxy]-acetyl)-( … (peptide)
peptide: B1 peptide with X24K, K31P
modifications: Aib2, αMeF(2F)6, 4Pal10, αMeL13, Orn16, Aib20, αMeY25; acylated K17, K24 (groups as in name); C-terminal amide
B15: Y-Aib-EGT-αMeF(2F)-TSD-4Pal-SI-αMeL-LD-Orn-K((2-[2-(2-Amino-ethoxy)-ethoxy]-acetyl)2-CO-(CH2)12-CO2H)AQ-Aib-K((2-[2-(2-Amino-ethoxy)-ethoxy]-acetyl)2-CO-(CH2)12 … (peptide)
peptide: B1 peptide with E21K, K31P
modifications: Aib2, αMeF(2F)6, 4Pal10, αMeL13, Orn16, Aib20, D-Glu24, αMeY25; acylated K17, K21 (groups as in name); C-terminal amide
B16: Y-Aib-EGT-αMeF(2F)-TSD-4Pal-SI-αMeL-LD-Orn-K((εK)-(2-[2-(2-Amino-ethoxy)-ethoxy]-acetyl)2-(γ-Glu)-CO-(CH2)12-CO2H)AQ-Aib-EFI-(D-Glu)-αMeY-LIEGGK((εK)-(2-[2-(2-A … (peptide)
peptide: B1 peptide
modifications: Aib2, αMeF(2F)6, 4Pal10, αMeL13, Orn16, Aib20, D-Glu24, αMeY25; acylated K17, K31 (groups as in name); C-terminal amide
B17: Y-Aib-EGT-αMeF(2F)-TSD-4Pal-SI-αMeL-LD-Orn-K((2-[2-(2-Amino-ethoxy)-ethoxy]-acetyl)2-CO-(CH2)12-CO2H)AQ-Aib-EFI-(D-Glu)-αMeY-LIEGGK((2-[2-(2-Amino-ethoxy)-ethox … (peptide)
peptide: B1 peptide
modifications: Aib2, αMeF(2F)6, 4Pal10, αMeL13, Orn16, Aib20, D-Glu24, αMeY25; acylated K17, K31 (groups as in name); C-terminal amide
B18: Y-Aib-EGT-αMeF(2F)-TSD-4Pal-SI-αMeL-LD-Orn-K((2-[2-(2-Amino-ethoxy)-ethoxy]-acetyl)2-(γ-Glu)-CO-(CH2)14-CH3)AQ-Aib-EFI-(D-Glu)-αMeY-LIEGGK((2-[2-(2-Amino-ethoxy … (peptide)
peptide: B1 peptide
modifications: Aib2, αMeF(2F)6, 4Pal10, αMeL13, Orn16, Aib20, D-Glu24, αMeY25; acylated K17, K31 (groups as in name); C-terminal amide
B19: Y-Aib-EGT-αMeF(2F)-TSD-4Pal-SI-αMeL-LD-Orn-K((2-[2-(2-Amino-ethoxy)-ethoxy]-acetyl)2-(γ-Glu)-CO-(CH2)12-CO2H)AQ-Aib-K((2-[2-(2-Amino-ethoxy)-ethoxy]-acetyl)2-(γ … (peptide)
peptide: B1 peptide with E21K, K31P
modifications: Aib2, αMeF(2F)6, 4Pal10, αMeL13, Orn16, Aib20, D-Glu24, αMeY25; acylated K17, K21 (groups as in name); C-terminal amide
B20: Y-Aib-EGT-αMeF(2F)-TSD-4Pal-SI-αMeL-LD-Orn-K((2-[2-(2-Amino-ethoxy)-ethoxy]-acetyl)3-(γ-Glu)-CO-(CH2)12-CO2H)AQ-Aib-EFI-(D-Glu)-αMeY-LIEGGK((2-[2-(2-Amino-ethox … (peptide)
peptide: B1 peptide
modifications: Aib2, αMeF(2F)6, 4Pal10, αMeL13, Orn16, Aib20, D-Glu24, αMeY25; acylated K17, K31 (groups as in name); C-terminal amide
B21: Y-Aib-EGT-αMeF(2F)-TSD-4Pal-SI-αMeL-LD-Orn-K((2-[2-(2-Amino-ethoxy)-ethoxy]-acetyl)-(εK)-(γ-Glu)-CO-(CH2)12-CO2H)AQ-Aib-EFI-(D-Glu)-αMeY-LIEGGK((2-[2-(2-Amino-e … (peptide)
peptide: B1 peptide
modifications: Aib2, αMeF(2F)6, 4Pal10, αMeL13, Orn16, Aib20, D-Glu24, αMeY25; acylated K17, K31 (groups as in name); C-terminal amide
B22: Y-Aib-EGT-αMeF(2F)-TSD-4Pal-SI-αMeL-LD-Orn-K((εK)-(γ-Glu)-(γ-Glu)-CO-(CH2)12-CO2H)AQ-Aib-EFI-(D-Glu)-αMeY-LIEGGK((εK)-(γ-Glu)-(γ-Glu)-CO-(CH2)12-CO2H)SSGAPPPS-N … (peptide)
peptide: B1 peptide
modifications: Aib2, αMeF(2F)6, 4Pal10, αMeL13, Orn16, Aib20, D-Glu24, αMeY25; acylated K17, K31 (groups as in name); C-terminal amide

What follows are binders tested against human glucagon receptor (human, UniProt P47871 26-477) (assay: cell-based or functional assay).
With B1 the “cAMP EC50 (1.0% HSA)” value was greater than 9.95 µM.
With B2 the “cAMP EC50 (1.0% HSA)” value was greater than 9.95 µM.
With B3 the “cAMP EC50 (1.0% HSA)” value was greater than 9.95 µM.
For B4, the “cAMP EC50 (1.0% HSA)” value was greater than 9.95 µM.
For B5, the “cAMP EC50 (1.0% HSA)” value was greater than 9.95 µM.
B6 was tested, and the “cAMP EC50 (1.0% HSA)” value was greater than 9.95 µM.
With B7 the “cAMP EC50 (1.0% HSA)” value was greater than 9.95 µM.
With B8 the “cAMP EC50 (1.0% HSA)” value was greater than 9.95 µM.
For B9, the “cAMP EC50 (1.0% HSA)” value was greater than 9.95 µM.
B10 was tested, and the “cAMP EC50 (1.0% HSA)” value was greater than 9.95 µM.
With B11 the “cAMP EC50 (1.0% HSA)” value was greater than 9.95 µM.
For B12, the “cAMP EC50 (1.0% HSA)” value was greater than 9.95 µM.
B13 was tested, and the “cAMP EC50 (1.0% HSA)” value was greater than 9.95 µM.
B14 was tested, and the “cAMP EC50 (1.0% HSA)” value was greater than 9.95 µM.
B15 was tested, and the “cAMP EC50 (1.0% HSA)” value was greater than 9.95 µM.
In the case of B16, the “cAMP EC50 (1.0% HSA)” value is reported as greater than 9.95 µM.
In the case of B17, the “cAMP EC50 (1.0% HSA)” value is reported as greater than 9.95 µM.
With B18 the “cAMP EC50 (1.0% HSA)” value was greater than 9.95 µM.
With B19 the “cAMP EC50 (1.0% HSA)” value was greater than 9.95 µM.
With B20 the “cAMP EC50 (1.0% HSA)” value was greater than 9.95 µM.
B21 was tested, and the “cAMP EC50 (1.0% HSA)” value was greater than 9.95 µM.
With B22 the “cAMP EC50 (1.0% HSA)” value was greater than 9.95 µM.
